Experimental data from doi:10.1101/2024.11.27.625426 (bioRxiv, 2024).

Target: N1-CA09-sNAp, stabilized neuraminidase protein of A/California/04/2009 (H1N1) (influenza A virus A/California/04/2009 (H1N1)) (UniProt C3W5S3)
Assay: cryo-EM structure

N1-CA09-sNAp, stabilized neuraminidase protein of A/California/04/2009 (H1N1) (from UniProt C3W5S3 1-469) (enzyme)
stoichiometry N: 4 protomers
